According to patent US8563513 (VAN ANDEL RESEARCH INSTITUTE, dated 2013):
Blank lines part the entries; values can stand above or below the binder they belong to. Where no end group is shown, it is not given here.

Columns and labels:
[1] = molecular target: T1, PTH1R in cell membranes, G protein-coupled conformation (RG) (UniProt Q03431 27-593); experiment: competition binding, PTH1R in cell membranes, RG state (dominant negative Gαs), n = 3
T1 construct: whole, on cells; Cell membranes, not intact cells; RG state studied by co-expressing the receptor with dominant negative Gαs; also called G protein-coupled receptor

[2] = molecular target: T2, MBP-PTH1R ECD-(His)6 fusion protein (UniProt Q03431 29-187); experiment: AlphaScreen single point competition; peptide 20 µM against biotin-PTH(7-34)NH2 (23 nM) on MBP-PTH1R-ECD (23 nM) [panel H]
T2 construct: range 29-187; Expressed in E. coli, disulfide shuffled in vitro; also called MBP-PTH1R ECD-H6; MBP-PTH1R ECD fusion protein
T2 sequence: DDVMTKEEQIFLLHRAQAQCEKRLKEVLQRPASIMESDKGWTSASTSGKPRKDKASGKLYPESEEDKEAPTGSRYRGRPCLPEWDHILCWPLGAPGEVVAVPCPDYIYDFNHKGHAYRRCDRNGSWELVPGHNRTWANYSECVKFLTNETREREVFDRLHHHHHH
Experimental: (§1) ECD-peptide binding assays. The binding of peptides to the MBP-PTH1R ECD-H6 fusion protein was assessed using an AlphaScreen assay (Perkin-Elmer). […] The pre-coupling reactions were mixed, un-labeled competitor peptides were added as indicated, and the reactions were incubated 4 to 5 hrs to reach equilibrium. Photon counts were recorded in 384-well optiplates using an Envision 2104 plate reader (Perkin-Elmer). Prism 5.0 software (GraphPad Software, San Diego) was used to fit the data to a fixed-slope dose-response inhibition equation for determination of IC50 values. Real-time analysis of the binding of peptides to the isolated PTH1R ECD using the Octet Red system (ForteBio) was performed as described in below.

[3] = molecular target: T2, MBP-PTH1R ECD-(His)6 fusion protein; experiment: AlphaScreen single point competition; peptide 20 µM against biotin-PTH(7-34)NH2 (23 nM) on MBP-PTH1R-ECD (23 nM) [panel A]
Experimental: as §1

[4] = molecular target: T2, MBP-PTH1R ECD-(His)6 fusion protein; experiment: AlphaScreen single point competition; peptide 20 µM against biotin-PTH(7-34)NH2 (23 nM) on MBP-PTH1R-ECD (23 nM) [panel I]
Experimental: as §1

[5] = molecular target: T2, MBP-PTH1R ECD-(His)6 fusion protein; experiment: AlphaScreen single point competition; peptide 20 µM against biotin-PTH(7-34)NH2 (23 nM) on MBP-PTH1R-ECD (23 nM) [panel B]
Experimental: as §1

T1 sequence (Q03431 27-593): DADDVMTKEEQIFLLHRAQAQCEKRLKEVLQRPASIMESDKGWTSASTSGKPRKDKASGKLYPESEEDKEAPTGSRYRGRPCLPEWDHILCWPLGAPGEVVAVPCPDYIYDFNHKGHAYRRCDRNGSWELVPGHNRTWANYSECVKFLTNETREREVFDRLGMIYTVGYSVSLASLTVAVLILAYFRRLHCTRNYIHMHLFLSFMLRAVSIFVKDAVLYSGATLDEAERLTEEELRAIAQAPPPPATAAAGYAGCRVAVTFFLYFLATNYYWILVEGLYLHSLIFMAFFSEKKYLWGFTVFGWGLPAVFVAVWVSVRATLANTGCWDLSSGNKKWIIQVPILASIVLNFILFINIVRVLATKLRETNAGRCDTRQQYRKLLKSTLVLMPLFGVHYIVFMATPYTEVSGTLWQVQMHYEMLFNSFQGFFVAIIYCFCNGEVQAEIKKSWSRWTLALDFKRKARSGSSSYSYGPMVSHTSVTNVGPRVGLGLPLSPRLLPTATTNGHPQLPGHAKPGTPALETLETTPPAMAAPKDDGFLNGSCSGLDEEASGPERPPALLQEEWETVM

B1: PTH(15-34)NH2 (peptide)
peptide: LNSMERVEWLRKKLQDVHNF-NH2
notes: also called C-terminally amidated 15-34 fragment of PTH
- binding result [2]: binds

B2: PTH(15-34)NH2 [W23′F] (peptide)
peptide: LNSMERVEFLRKKLQDVHNF-NH2
notes: Hybrid PTH/PTHrP peptide in the PTH(15-34)NH2 scaffold
- binding result [3]: binds

B3: PTH(15-34)NH2 [K27′L/V31′I] (peptide)
peptide: LNSMERVEWLRKLLQDIHNF-NH2
notes: as for B2
- binding result [3]: binds

Binder: LNSMERVEWARKKLQDVHNF-NH2 (also called PTH(15-34)NH2 [L24A])
- binding result [2]: no binding (tested: 20 µM)

Binder: LNSMERVEWLRKKLQDVHNA-NH2 (also called PTH(15-34)NH2 [F34A]) [F34A]
- binding result [2]: binds

Binder: LNSMERVEFLRKKLQDIHNF-NH2 (also called PTH(15-34)NH2 [W23F/V31I]) [W23F/V31I]
- binding result [3]: binds

B5: PTH(15-34)NH2 [K27′L/L28′I] (peptide)
peptide: LNSMERVEWLRKLIQDVHNF-NH2
notes: as for B2
- binding result [3]: binds

Binder: LNSMERVEWLRAKLQDVHNF-NH2 (also called PTH(15-34)NH2 [K26A]) [K26A]
- binding result [2]: binds

Binder: LNSMARVEWLRKKLQDVHNF-NH2 (also called PTH(15-34)NH2 [E19A]) [E19A]
- binding result [2]: binds

B6: PTH(15-34)NH2 [L28′I] (peptide)
peptide: LNSMERVEWLRKKIQDVHNF-NH2
notes: as for B2
- binding result [3]: binds

B7: PTH(15-34)NH2 [K27′L] (peptide)
peptide: LNSMERVEWLRKLLQDVHNF-NH2
notes: as for B2
- binding result [3]: binds

Binder: LNSMERVEFLRKKIQDVHNF-NH2 (also called PTH(15-34)NH2 [W23F/L28I]) [W23F/L28I]
- binding result [3]: binds

Binder: LNSMERVEWLRKKLQDAHNF-NH2 (also called PTH(15-34)NH2 [V31A]) [V31A]
- binding result [2]: binds

B9: PTH(15-34)NH2 [W23′F/K27′L] (peptide)
peptide: LNSMERVEFLRKLLQDVHNF-NH2
notes: as for B2
- binding result [3]: binds

Binder: GKSIQDLRRRFALHHLIAEIHTA-NH2 (also called PTHrP(12-34)NH2 [F23A]) [F23A]
- binding result [4]: binds

Binder: GKSIQDLARRFFLHHLIAEIHTA-NH2 (also called PTHrP(12-34)NH2 [R19A]) [R19A]
- binding result [4]: binds

Binder: GKSIQDLRRRFWLHHLLAEIHTA-NH2 (also called PTHrP(12-34)NH2 [F23W/I28L]) [F23W/I28L]
- binding result [5]: binds

Binder: GKSIQDLRRRFWLHHLIAEVHTA-NH2 (also called PTHrP(12-34)NH2 [F23W/I31V]) [F23W/I31V]
- binding result [5]: binds

B10: PTHrP(12-34)NH2 [I28′L] (peptide)
peptide: GKSIQDLRRRFFLHHLLAEIHTA-NH2
notes: Hybrid PTH/PTHrP peptide in the PTHrP(12-34)NH2 scaffold
- binding result [5]: binds

B12: PTHrP(12-34)NH2 [F23′W/L27′K/I28′L/I31′V] (peptide)
peptide: GKSIQDLRRRFWLHHKLAEVHTA-NH2
notes: Quadruple swap peptide in the PTHrP(12-34)NH2 scaffold; also called quadruply mutant PTHrP peptide
- binding result [5]: binds

Binder: GKSIQDLRRRFFLHHAIAEIHTA-NH2 (also called PTHrP(12-34)NH2 [L27A]) [L27A]
- binding result [4]: binds

Binder: GKSIADLRRRFFLHHLIAEIHTA-NH2 (also called PTHrP(12-34)NH2 [Q16A]) [Q16A]
- binding result [4]: binds

Binder: GKSIQDLRRRFFLHHLLAEVHTA-NH2 (also called PTHrP(12-34)NH2 [I28L/I31V]) [I28L/I31V]
- binding result [5]: binds

B13: PTHrP(12-34)NH2 [F23′W] (peptide)
peptide: GKSIQDLRRRFWLHHLIAEIHTA-NH2
notes: as for B10
- binding result [5]: binds

Binder: GKSIQDLRRRFFLHHLIAEAHTA-NH2 (also called PTHrP(12-34)NH2 [I31A]) [I31A]
- binding result [4]: binds

Binder: GKSIQDLRRRFFLHHLIAEIATA-NH2 (also called PTHrP(12-34)NH2 [H32A])
- binding result [4]: binds

B15: PTHrP(12-34)NH2 [L27′K/I28′L] (peptide)
peptide: GKSIQDLRRRFFLHHKLAEIHTA-NH2
notes: as for B10
- binding result [5]: binds

Other lines, results leading:

- IC50 [1]: 0.38 nM
- IC50 Log M [1]: -9.5 Log M
Binder: SVSEIQLMHNLGKHLNSMERVEWLRKLIQDVHNF-NH2 [PTH(1-34)NH2 [K27L/L28I]]

- binding result [2]: binds
Binder: LNSMERVEWLRKALQDVHNF-NH2 (also called PTH(15-34)NH2 [K27A]) [K27A]

- binding result [2]: no binding (tested: 20 µM)
Binder: LNSMERVEALRKKLQDVHNF-NH2 (also called PTH(15-34)NH2 [W23A]) [W23A]

- binding result [3]: binds
B4: PTH(15-34)NH2 [W23′F/K27′L/L28′I/V31′I] (peptide)
peptide: LNSMERVEFLRKLIQDIHNF-NH2
notes: Quadruple swap peptide in the PTH(15-34)NH2 scaffold; also called W23′F/K27′L/L28′I/V31′I peptide

- binding result [3]: binds
Binder: LNSMERVEWLRKKIQDIHNF-NH2 (also called PTH(15-34)NH2 [L28I/V31I]) [L28I/V31I]

- binding result [2]: binds
Binder: LNSMEAVEWLRKKLQDVHNF-NH2 (also called PTH(15-34)NH2 [R20A])

- binding result [2]: binds
Binder: LNSMERVEWLRKKLQDVANF-NH2 (also called PTH(15-34)NH2 [H32A])

- binding result [2]: no binding (tested: 20 µM)
Binder: LNSMERVEWLRKKAQDVHNF-NH2 (also called PTH(15-34)NH2 [L28A]) [L28A]

- binding result [2]: binds
Binder: LNSMERVEWLRKKLADVHNF-NH2 (also called PTH(15-34)NH2 [Q29A]) [Q29A]

- binding result [2]: binds
Binder: LNSMERAEWLRKKLQDVHNF-NH2 (also called PTH(15-34)NH2 [V21A]) [V21A]

- binding result [3]: binds
B8: PTH(15-34)NH2 [V31′I] (peptide)
peptide: LNSMERVEWLRKKLQDIHNF-NH2
notes: as for B2

- binding result [4]: binds
Binder: GKSIQDLRRRFFAHHLIAEIHTA-NH2 (also called PTHrP(12-34)NH2 [L24A])

- binding result [4]: binds
Binder: GKSIQDLRRRFFLHHLIAEIHAA-NH2 (also called PTHrP(12-34)NH2 [T33A]) [T33A]

- binding result [4]: no binding (tested: 20 µM)
Binder: GKSIQDLRARFFLHHLIAEIHTA-NH2 (also called PTHrP(12-34)NH2 [R20A])

- binding result [4]: binds
Binder: GKSIQDLRRAFFLHHLIAEIHTA-NH2 (also called PTHrP(12-34)NH2 [R21A]) [R21A]

- binding result [5]: binds
B11: PTHrP(12-34)NH2 [F23′W/L27′K] (peptide)
peptide: GKSIQDLRRRFWLHHKIAEIHTA-NH2
notes: as for B10

- binding result [4]: binds
Binder: GKSIQDLRRRFFLHHLAAEIHTA-NH2 (also called PTHrP(12-34)NH2 [I28A]) [I28A]

- binding result [5]: binds
B14: PTHrP(12-34)NH2 [I31′V] (peptide)
peptide: GKSIQDLRRRFFLHHLIAEVHTA-NH2
notes: as for B10
